Several values for one entry are separate records, joined by “and”; a condition that tells them apart may be missing. Identical values can stand only once. Entries after “also recorded” stand apart in the source; their conditions may differ. Where no end group is shown, it is not given here. [ ]: non-standard residue; d: D form. 14C‑Gly = 14C labelled glycine
Columns and labels:
[1] = target: T1, TMPRSS2 (Homo sapiens, UniProt O15393); assay: Cellular TMPRSS2 inhibition assay in Caco-2 cells; type: cell-based; parameters: using Caco-2 and Calu3 cells, both of which express surface TMPRSS2; endogenous in cells; host or cells: Caco-2 cells
Method: Caco-2 cells (1×10^5 per well) were incubated in 96 well plates with 0 to 50 μg/ml of the indicated peptide in the presence of a TMPRSS2 substrate (Boc-Leu-Gly-Arg-AMC) in 50 mM Tris-HCl, pH 7.4. Substrate conversion was monitored in a fluorescence plate reader for 2 hours and inhibition of enzyme activity was expressed relative to a solvent control.
(§1) TMPRSS2 inhibition assays. Peptides (0-50 μg/ml) were tested for their inhibitory activities against TMPRSS2 in cellular assays using Vero E6 cells, Caco-2 cells, or Calu-3 cells using standard conditions. TMPRSS2 activity was assayed in real time for 120 min by monitoring the cleavage of the TMPRSS2 substrate, Boc-Leu-Gly-Arg-AMC. Following the 2 h enzyme assay, cells were evaluated for viability using the CellTiter-Glo cellular toxicity assay.

[2] = system: SARS-CoV-2; assay: Antiviral assay, SARS-CoV-2 replication in Calu3 2B4 cells (RT-qPCR); type: cell-based; conditions: 24 h
[3] = target: T1, TMPRSS2; assay: Cellular TMPRSS2 inhibition assay in Calu3 cells; type: cell-based; parameters: endogenous in cells; host or cells: Calu3 (Calu-3) cells; conditions: Calu3 cells
Method: as §1

[4] = Biodistribution of 14C-radiolabeled Peptide 1 in female rats; type: in vivo, SD rats
Method: Biodistribution [^14C]-radiolabeled Peptide 1 (SEQ ID NO. 1) in female rats: Five SD rats (195 and 200 g b.w.) with jugular vein catheters (JVC) were each injected with 200 μL of 5 mg/mL Peptide 1 (SEQ ID NO. 1) in saline containing ˜4 million CPM of [^14C]-Peptide 1. The ^14C-Peptide 1 (SEQ ID NO. 1) was created by substituting the natural glycine residue on position 1 of the cyclic peptide with a ^14C labeled glycine. The JVC line was cleaned with 70% isopropyl alcohol, and the line plug was removed. A new 25 G blunt needle with a 1 mL syringe containing injectable solutions was used for each injection. The JVC line was first cleared with 100 μL saline, followed by the Peptide 1 (SEQ ID NO. 1) solution, then cleared with an additional 100 μL of saline. Tissues and organs were harvested into separated vials and weighed. Small organs such as lymph nodes, kidneys, and heart/lungs were processed whole. Large organs (e.g., liver, muscles, subcutaneous fat pads) were sampled from representative areas or those of interest (e.g., subcutis at the injection site). Organs were then dissolved in 2 mL Solvable™ (Perkin Elmer 6NE9100) for up to 1 g of tissue. For a large section of skin and other organs, 4 or 6 mL were added. Vials were incubated in a 60° C. water bath for 18-22 hours, then removed and allowed to cool to room temperature. […]

[5] = target: TMPRSS2 (UniProt O15393 1-492, limits assumed); assay: cell-based or functional assay
Chain of TMPRSS2 (UniProt O15393 1-492, limits assumed) (O15393 whole entry): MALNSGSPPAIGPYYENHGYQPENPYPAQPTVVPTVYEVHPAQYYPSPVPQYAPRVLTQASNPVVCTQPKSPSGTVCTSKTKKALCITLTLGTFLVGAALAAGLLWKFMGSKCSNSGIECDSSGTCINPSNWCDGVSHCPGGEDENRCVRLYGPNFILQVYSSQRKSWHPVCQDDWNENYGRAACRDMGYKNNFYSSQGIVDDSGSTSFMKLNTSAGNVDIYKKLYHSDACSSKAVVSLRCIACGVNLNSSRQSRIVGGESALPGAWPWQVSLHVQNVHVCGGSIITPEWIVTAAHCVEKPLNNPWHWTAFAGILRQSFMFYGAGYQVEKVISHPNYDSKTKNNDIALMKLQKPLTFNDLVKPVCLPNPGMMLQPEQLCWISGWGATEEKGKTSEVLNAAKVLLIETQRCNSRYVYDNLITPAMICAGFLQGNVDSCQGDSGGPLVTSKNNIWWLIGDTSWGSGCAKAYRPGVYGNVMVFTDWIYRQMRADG

T1 sequence (O15393 whole entry): as above

Molecule: Peptide 5: naturally occurring cyclic peptide (theta defensin), SEQ ID NO. 5, FIG. 1B (GICRCLCRRGVCRCICVL; not fully specified (bridges); also: cyclic; listed as Macaca mulatta)
- TMPRSS2 inhibitory activity ([1]; highest concentration tested (50 μg/mL), cell line not stated): no TMPRSS2 inhibitory activity
- SARS-CoV-2 viral replication (N gene expression relative to ACTB) [2]: no apparent antiviral effect; also recorded: inactive

Molecule: Peptide 3: naturally occurring cyclic peptide (theta defensin), SEQ ID NO. 3, FIG. 1A (GFCRCICTRGFCRCICTR; cyclic; listed as Macaca mulatta)
- inhibition of TMPRSS2 [3]: similarly inhibited TMPRSS2
- inhibition of TMPRSS2 ([1]; Caco-2 cells, 0 to 50 μg/ml, FIG. 10): higher than Peptide 1

Molecule: Peptide 2: naturally occurring cyclic peptide (theta defensin), SEQ ID NO. 2, FIG. 1A (GVCRCLCRRGVCRCLCRR; cyclic; listed as Macaca mulatta)
- SARS-CoV-2 viral replication (N gene expression relative to ACTB) [2]: highly effective in blocking viral replication

Molecule: ^14C-Peptide 1: created by substituting the natural glycine residue on position 1 of the cyclic peptide with a 14C labeled glycine ([14C‑Gly]FCRCLCRRGVCRCICTR; not fully specified (bridges); also: cyclic; listed as Macaca mulatta)
- tissue distribution (density of 14C) ([4]; 1 h after i.v. administration): highest density measured in the liver, followed by the kidney
- 14C counts recovered in urine ([4]; single i.v. dose equivalent to 5 mg/kg, 24 h): 7% and 8.5%

B1: Peptide 1 (SEQ ID NO. 1) (peptide)
peptide: cyclo(GFCRCLCRRGVCRCICTR)
modifications: disulfide (positions not given here); also: three disulfide bonds, pairing not given here
- IC50 of enzyme inhibition (cleavage of Boc-Leu-Gly-Arg-AMC by cells) [5]: 6.5 to 8 µg/mL

— patent US20240108702A1, “Use Of Naturally Occurring Cyclic Peptides For Treatment Of SARS-COV-2 Infection” (The University of Southern California, priority 2021, published 2024)
